Assay [1] deals with BCMAECD-His (monomeric, His-tagged human BCMA extracellular domain) (human) (UniProt Q02223). As to the kind of experiment: SPR; heterogeneous ligand, first site (kd1). The following applies: VHH. A general note: Surface plasmon resonance follows binding to a sensor surface in real time, without labels.
The target in assay [2] is BCMAECD-Fc (dimerized, Fc-tagged human BCMA extracellular domain) (human) (UniProt Q02223). The assay can be described thus: SPR; heterogeneous ligand, first site (kd1). Particulars: VHH.
Assay [3] has the same target. The assay can be described thus: SPR; heterogeneous ligand, first site (KD1). The following applies: VHH.
For assay [4], the target named is BCMAECD-His (monomeric, His-tagged human BCMA extracellular domain) (human) (UniProt Q02223). As to the kind of experiment: SPR; heterogeneous ligand, second site (KD2). Particulars: VHH.
For assay [5], the target named is BCMAECD-Fc (dimerized, Fc-tagged human BCMA extracellular domain) (human) (UniProt Q02223). As to the kind of experiment: SPR; heterogeneous ligand, second site (KD2). Particulars: VHH.
The target of assay [6] is BCMAECD-His (monomeric, His-tagged human BCMA extracellular domain) (human) (UniProt Q02223). As to the kind of experiment: SPR; heterogeneous ligand, second site (kd2). The following applies: VHH.
Assay [7] concerns the target BCMAECD-Fc (dimerized, Fc-tagged human BCMA extracellular domain) (human) (UniProt Q02223). As to the kind of experiment: SPR; heterogeneous ligand, second site (kd2). Particulars: VHH.
For assay [8] the target is unchanged. The assay can be described thus: SPR; Biacore 8K, 25 °C, 10 mM HEPES pH 7.4, 150 mM NaCl, 0.05% Tween 20; BCMAECD-Fc immobilised by amine coupling on CM5; nanobodies as analytes (five two-fold dilutions); Langmuir model for Nb1 and Nb2, heterogeneous ligand model for NbT.
Assay [9] has as its target BCMAECD-His (monomeric, His-tagged human BCMA extracellular domain) (human) (UniProt Q02223). The assay can be described thus: SPR; Biacore 8K, 25 °C, 10 mM HEPES pH 7.4, 150 mM NaCl, 0.05% Tween 20; BCMAECD-His immobilised by amine coupling on CM5; nanobodies as analytes (five two-fold dilutions); Langmuir model for Nb1 and Nb2, heterogeneous ligand model for NbT.
For assay [10], the target named is BCMAECD (synthesized extracellular domain of human B-cell maturation antigen, residues 1-54) (human) (UniProt Q02223). As to the kind of experiment: AUC; sedimentation velocity; complexes formed by mixing nanobody with excess BCMAECD (molar ratio 1:4, overnight at 4 °C); 1 mg/ml, 45,000 rpm, 20 mM Tris pH 8.0, 100 mM NaCl, 4 °C.

Results on two substances are retold here after publication PMC10703879.

BCMAECD-Fc (dimerized, Fc-tagged human BCMA extracellular domain) (human), sequence (Q02223 1-54): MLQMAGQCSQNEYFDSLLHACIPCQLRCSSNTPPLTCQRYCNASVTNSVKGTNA
BCMAECD-His (monomeric, His-tagged human BCMA extracellular domain) (human), sequence (Q02223 1-54): as above
BCMAECD (synthesized extracellular domain of human B-cell maturation antigen, residues 1-54) (human), sequence (Q02223 1-54): as above

For the substance “NbT (cilta-cel nanobody tandem, Nb1 and Nb2 in tandem)”, the koff (commonly a measure of how fast the partners let go of each other) came out at 0.000118 s⁻¹ in [1], 3.28e-05 s⁻¹ in assay [2], 0.0191 s⁻¹ in assay [6] and 0.0133 s⁻¹ in assay [7]. Moreover, the results for the Kd in assay [3], in [4] and in [5] were 0.00361 nM, 4.27 nM and 3.54 nM, respectively.
The substance “NbT (cilta-cel nanobody tandem, Nb1 and Nb2 in tandem) (VHH)” had a KD of the higher-affinity site (heterogeneous ligand model) in assay [8] of 0.0036 nM. For the same substance, the KD of the stronger site (heterogeneous ligand model) in assay [9] amounted to 0.011 nM. In addition, in [10], the stoichiometry N (NbT per BCMAECD (printed 2 to 4)) is 0.5.
